Measurements taken from patent US20120107932A1 (published 2012).

Molecular target: PRRS virus (PRRSV)
Assay: cell-based or functional assay

| Binder | CPE caused by PRRSV on Marc-145 and PAM cells, blocker at 1 µg/well ('++' means CPE in 50% cells) [% cells with CPE] |
| --- | --- |
| GAGDGSDEE [NMHC II-A artificial polypeptide (Seq ID No: 2)] | 50 |
| GAGDGSDEEVDGKA [NMHC II-A artificial polypeptide (Seq ID No: 3)] | 50 |
| KADGAEAKPAE [NMHC II-A artificial polypeptide (Seq ID No: 4)] | 50 |
